The values that follow come from article PMC8740593.

T1: QHB-DB (QHB/OsWOX5 DNA-binding domain) (Oryza sativa (rice), UniProt Q8W0F1 1-82)
T1 sequence: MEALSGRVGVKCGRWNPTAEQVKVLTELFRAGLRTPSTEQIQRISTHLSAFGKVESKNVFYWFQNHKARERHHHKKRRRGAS

B1: P1 (dsDNA)
DNA 1: AAAGATAATAAAAATGTTTATTTCGATGCATTAATTAGTTGTTAGAGTCTTTTGTTGTGT
DNA 2: ACACAACAAAAGACTCTAACAACTAATTAATGCATCGAAATAAACATTTTTATTATCTTT
B2: Positive control (AGAMOUS intron) (dsDNA)
DNA 1: ATGTCTATTGGATTTATACCCAATGTGTTAATGGGTTGTTGACACATGTCACATGTCTGA
DNA 2: TCAGACATGTGACATGTGTCAACAACCCATTAACACATTGGGTATAAATCCAATAGACAT
B3: P3 (dsDNA)
DNA 1: GTAGATGGTACCCGCTGCAGTAAGCCTCCATTAAGCTTGAATTGCTGCTCCCTTGGGCGC
DNA 2: GCGCCCAAGGGAGCAGCAATTCAAGCTTAATGGAGGCTTACTGCAGCGGGTACCATCTAC
B4: P2 (dsDNA)
DNA 1: TTTTATAATTAATCACTCCTTGCTGCTTAATCACCCAATTAATCACACCTGATCTACCCA
DNA 2: TGGGTAGATCAGGTGTGATTAATTGGGTGATTAAGCAGCAAGGAGTGATTAATTATAAAA
B5: M3 (Core 3 mutated) (dsDNA)
DNA 1: B4 DNA 1 with T39C, T40C, A41G, A42G
DNA 2: B4 DNA 2 with T19C, T20C, A21G, A22G
B6: M1 (Core 1 mutated) (dsDNA)
DNA 1: B4 DNA 1 with A7G, A8G, T9C, T10C, A11G, A12G
DNA 2: B4 DNA 2 with T49C, T50C, A51G, A52G, T53C, T54C

Positions count from the first letter of the chain named.

The target of this data set is T1, QHB-DB (QHB/OsWOX5 DNA-binding domain). The data set is described as follows: EMSA. A general note: A gel shift assay detects complexes by their altered migration in electrophoresis.
In the case of B1, the binding result is given as “no binding”.

On to B2, for which the binding result is “binds”.

On to B3, for which the binding result was “no binding”.

As for B4, the binding result is “binds”.

With B5, the binding result is “no binding”.

Turning to B6, the binding result is “no binding”.
